Data taken from article PMC11054746, “GRPR-Antagonists Carrying DOTAGA-Chelator via Positively Charged Linkers: Perspectives for Prostate Cancer Theranostics” (Pharmaceutics, 2024).
Starred links: 1 amine or outer side, 2 acyl side, 3 side chain; linkers in the order of their positions; H or OH if unused. Non-standard residues stand in square brackets, D forms with d. Residues, ends and D or L forms follow the SMILES beside them. *: point of attachment. DOTAGA = O=C(O)CN1CCN(CC(=O)O)CCN(C(CCC(=O)*)C(=O)O)CCN(CC(=O)O)CC1; Sta = CC(C)C[C@H](N)[C@@H](O)CC(=O)O; X1 = O=C(CN1CCC(N[*:1])CC1)[*:2]; Sar = CNCC(=O)O

What was measured:
[1] = Radiochemical stability: indium release in PBS or with EDTA excess, by iTLC; type: physicochemical; conditions: room temperature, 0.2 M citric acid, mean ± sd, n = 3
Protocol: The radiochemical yield was analyzed with instant thin layer chromatography (iTLC) strips (Agilent Technologies, Santa Clara, CA, USA), using 0.2 M citric acid buffer as a mobile phase (Rf = 0 for the radiolabeled peptide and Rf = 1 for free indium). The iTLC results were analyzed using Cyclone® Plus Phosphorimager (PerkinElmer, Hägersten, Sweden). The radiochemical stability was determined by incubating the radiolabeled compounds with phosphate-buffered saline (PBS) or a 1000-fold molar excess of ethylenediaminetetraacetic acid (EDTA) for 1 h at room temperature. The percentage of indium release was assessed by iTLC using 0.2 M citric acid as mobile phase. Stability tests were performed in triplicate for each compound.

[2] = system: PC-3 cells; assay: In vitro binding specificity assay (uptake with and without GRPR blocking by NOTA-PEG2-RM26); type: cell-based, human; conditions: 1 nM radiotracer, 1 h, unblocked
Protocol: The in vitro binding assay was performed on PC-3 cells seeded in 6-well plates (1.15 × 10^6 cells/well). Media containing a GRPR-blocking agent (NOTA-PEG2-RM26, 1 μM) were added to half of the wells. The plates were incubated at room temperature for 10 min and the medium containing the radiotracer under investigation was added to all wells in a final concentration of 1 nM. The plates were incubated for 1 h and then treated with 0.25% trypsin-EDTA to detach cells. The cells were collected and their activity was measured using the gamma counter.

[3] = target: T1, human GRPR (Homo sapiens, UniProt P30550); assay: Affinity measurements in real time (LigandTracer) on PC-3 cells; type: binding; conditions: room temperature, 1:2 fitting interaction model
T1 construct: host or cells: PC-3 human prostate adenocarcinoma cells
Protocol: The association curves were recorded at 1 nM and 3 nM of the radiolabeled peptides for 300 min. After reaching the plateau, the medium containing the radioligand was replaced with fresh medium and the dissociation curve was measured for about 16 h. The obtained sensorgrams were analyzed using TracerDrawer (Ridgeview Instruments AB, Uppsala, Sweden) and the dissociation constants (KD) were calculated.

[4] = system: PC-3 cells; assay: Cellular internalization; type: cell-based, human; conditions: 1 nM, acid wash, mean of 3 dishes ± sd, normalized to maximum cell association at 24 h
Protocol: For the cellular internalization assay, PC-3 cells (1 × 10^6 cells/dish) were used. The cells were incubated with 1 mL (1 nM) of solution containing the radiolabeled peptide under evaluation. At the 4 h and 24 h time points, the cells were treated with an acid wash (0.2 M glycine buffer with 0.15 M NaCl and 4 M urea, pH 2) for 5 min on ice to remove the membrane-bound peptide. After collection of acid fractions, the cells were treated with 1 M NaOH for at least 30 min and the cell debris were scraped and collected. The activity content in samples was measured using the gamma counter.

[5] = in vivo; set-up: species or system BALB/C nu/nu mice; conditions: BALB/C nu/nu, mouse, iv, total radioactivity; for tissue to tissue ratio at 4 h / tissue to tissue ratio at 24 h: Tumor-to-organ ratio
Protocol: (§1) All in vivo studies were performed following European guidelines on laboratory animal protection. The in vivo stability experiments were carried out in healthy male Swiss albino mice; the study protocol was approved by the Department of Agriculture and Veterinary Service of the Prefecture of Athens (protocol number #440448, 01-06-2021). The biodistribution, in vivo targeting specificity assay, and SPECT/CT imaging experiments were carried out on BALB/C nu/nu mice. The Ethics Committee for Animal Research in Uppsala (Sweden) approved the latter in vivo animal studies (permit number 00473/21). The BALB/C nu/nu mice were implanted with GRPR-positive prostate cancer xenografts by subcutaneous injection on the right hind leg of PC-3 cells suspended in PBS (7 × 10^6 cells/mouse) four weeks before the biodistribution studies.
(§2) The mice were iv injected with 40 pmol peptide (30 kBq in a total volume of 100 μL 1% bovine serum albumin (BSA) in PBS). […] At the indicated time points, mice were euthanized under anesthesia. The organs of interest were collected, weighed, and the sample radioactivity content was measured on the gamma counter. The percentage of injected activity per gram (%IA/g) of collected tumors, organs and tissues, the %IA for the remaining gastrointestinal tract and carcass, as well as the tumor-to-organ ratios (T/O) were calculated.

[6] = system: PC-3 xenografts; assay: in vivo; set-up: species or system BALB/C nu/nu mice; conditions: mouse
Protocol: as §1, §2

[7] = 40 pmol, GI (gastrointestinal tract, GIT) uptake

T1 sequence (P30550 whole entry): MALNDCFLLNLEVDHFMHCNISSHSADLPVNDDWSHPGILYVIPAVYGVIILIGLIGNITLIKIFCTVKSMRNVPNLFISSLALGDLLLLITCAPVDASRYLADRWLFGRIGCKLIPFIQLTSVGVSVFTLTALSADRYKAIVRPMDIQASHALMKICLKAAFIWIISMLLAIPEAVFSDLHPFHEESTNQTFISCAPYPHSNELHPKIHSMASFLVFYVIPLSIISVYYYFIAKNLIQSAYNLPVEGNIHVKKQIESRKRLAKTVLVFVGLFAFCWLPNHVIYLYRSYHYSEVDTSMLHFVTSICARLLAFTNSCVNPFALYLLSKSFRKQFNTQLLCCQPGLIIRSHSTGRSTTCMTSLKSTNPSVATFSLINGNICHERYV

## CC(C)C[C@H](NC(=O)C[C@H](O)[C@H](CC(C)C)NC(=O)[C@H](Cc1c[nH]cn1)NC(=O)CN(C)C(=O)[C@@H](NC(=O)[C@H](C)NC(=O)[C@H](Cc1c[nH]c2ccccc12)NC(=O)[C@H](CCC(N)=O)NC(=O)[C@@H](Cc1ccccc1)NC(=O)CN1CCC(NC(=O)[C@H](CCCNC(=N)N)NC(=O)[C@H](CCCNC(=N)N)NC(=O)CCC(C(=O)O)N2CCN(CC(=O)O)CCN(CC(=O)O)CCN(CC(=O)O)CC2)CC1)C(C)C)C(N)=O (stereo partly drawn) [[^111In]In-AU-RM26-M4, metal not drawn] ({DOTAGA}-RR[X1][dF]QWAV[Sar]H[Sta]L-NH2)
[1]; 1000-fold molar excess of EDTA
  released [111In]In3+, ×1000 EDTA (1 h): 3.2 ± 0.1% (3)
[1]; incubation in PBS, 1 h
  released [111In]In3+, PBS: 1.9 ± 0.1% (3)
[2]
  cell uptake, fold higher than the other analogs of the series: 2 fold
[3]; association at 1 and 3 nM
  ka1: 344000 M⁻¹ s⁻¹
  ka2: 346000 M⁻¹ s⁻¹
[3]; dissociation about 16 h
  kd1: 2e-06 s⁻¹
  kd2: 2.08e-06 s⁻¹
[4]
  internalized fraction at 24 h: 33 ± 7%
[5]; 40 pmol, Blood uptake
  tissue uptake at 4 h: 0.122 ± 0.0013 %ID/g
  tissue uptake at 24 h: 0.02 ± 0.01 %ID/g
[5]; 40 pmol, Bone uptake
  tissue uptake at 4 h: 0.13 ± 0.04 %ID/g
  tissue uptake at 24 h: 0.09 ± 0.02 %ID/g
[5]; 40 pmol, Carcass (whole body) uptake
  tissue uptake dose at 4 h: 3 ± 1.5 %ID
[5]; 40 pmol, Carcass uptake
  tissue uptake dose at 24 h: 0.8 ± 0.2 %ID
[5]; [7]
  tissue uptake dose at 4 h: 1.4 ± 0.3 %ID
  tissue uptake dose at 24 h: 0.15 ± 0.03 %ID
[5]; 40 pmol, Kidneys uptake
  tissue uptake at 4 h: 7 ± 1 %ID/g
  tissue uptake at 24 h: 2.7 ± 0.1 %ID/g
[5]; 40 pmol, Liver uptake
  tissue uptake at 4 h: 0.6 ± 0.11 %ID/g
  tissue uptake at 24 h: 0.31 ± 0.07 %ID/g
[5]; 40 pmol, Lungs uptake
  tissue uptake at 4 h: 0.2 ± 0.08 %ID/g
  tissue uptake at 24 h: 0.06 ± 0.02 %ID/g
[5]; 40 pmol, Muscle uptake
  tissue uptake at 4 h: 0.06 ± 0.02 %ID/g
  tissue uptake at 24 h: 0.02 ± 0.01 %ID/g
[5]; 40 pmol, Pancreas uptake
  tissue uptake at 4 h: 3.4 ± 0.6 %ID/g
  tissue uptake at 24 h: 0.36 ± 0.08 %ID/g
[5]; 40 pmol, Small Int uptake
  tissue uptake at 4 h: 1.1 ± 0.3 %ID/g
  tissue uptake at 24 h: 0.11 ± 0.03 %ID/g
[5]; 40 pmol, Spleen uptake
  tissue uptake at 4 h: 0.23 ± 0.07 %ID/g
  tissue uptake at 24 h: 0.14 ± 0.04 %ID/g
[5]; 40 pmol, Tumor uptake
  tissue uptake at 4 h: 15 ± 5 %ID/g
  tissue uptake at 24 h: 7 ± 3 %ID/g
[5]; 40 pmol, Blood
  tissue to tissue ratio at 4 h: 123 ± 43
  tissue to tissue ratio at 24 h: 369 ± 228
[5]; 40 pmol, Bone
  tissue to tissue ratio at 4 h: 119 ± 40
  tissue to tissue ratio at 24 h: 79 ± 25
[5]; 40 pmol, Kidneys
  tissue to tissue ratio at 4 h: 2.3 ± 0.9
  tissue to tissue ratio at 24 h: 2.6 ± 0.9
[5]; 40 pmol, Liver
  tissue to tissue ratio at 4 h: 25 ± 11
  tissue to tissue ratio at 24 h: 23 ± 9
[5]; 40 pmol, Lungs
  tissue to tissue ratio at 4 h: 90 ± 59
  tissue to tissue ratio at 24 h: 120 ± 61
[5]; 40 pmol, Muscle
  tissue to tissue ratio at 4 h: 307 ± 168
  tissue to tissue ratio at 24 h: 347 ± 176
[5]; 40 pmol, Pancreas
  tissue to tissue ratio at 4 h: 4 ± 1
  tissue to tissue ratio at 24 h: 20 ± 5
[5]; 40 pmol, Small Int
  tissue to tissue ratio at 4 h: 15 ± 7
  tissue to tissue ratio at 24 h: 67 ± 35
[5]; 40 pmol, Spleen
  tissue to tissue ratio at 4 h: 71 ± 37
  tissue to tissue ratio at 24 h: 54 ± 30
[5]; Carcass uptake, Block
  tissue uptake dose at 4 h: 1.6 ± 0.3 %ID
[5]; GI (gastrointestinal tract, GIT) uptake, Block
  tissue uptake dose at 4 h: 0.5 ± 0.2 %ID
[6]; BALB/C nu/nu, iv, 40 pmol, 4 h
  Blood uptake: 0.125 ± 0.0004 %IA/g
[6]
  kidney uptake at 24 h pi retained as % of the 4 h renal value: < 38%
  pancreas uptake at 24 h pi as % of the initial 4 h uptake: less than 10%
